In ChEMBL document CHEMBL1122728, “Derivatives of 2-methyl-1,4-naphthoquinone as substrates and inhibitors of the vitamin K dependent carboxylase” (J Med Chem, 1984):
Several values for one entry are separate records, joined by “and”; a condition that tells them apart may be missing. Identical values can stand only once.

Assays:
[1] = compound: COC(=O)[C@H](CC(C)C)NC(=O)[C@H](CCC(=O)O)NC(=O)[C@H](CCC(=O)O)NC(=O)CCCC1=CC(=O)c2ccccc2C1=O; assay: (§1) In vitro inhibitory effect Vitamin K dependent carboxylase of Phe-Leu-Glu-Glu-Leu in rat microsomal protein; assay type: microsomes; details: Microsome
[2] = compound: COC(=O)[C@H](CC(C)C)NC(=O)[C@H](CCC(=O)O)NC(=O)[C@H](CCC(=O)O)NC(=O)CCCC1=C(C)C(=O)c2ccccc2C1=O; assay: as §1; assay type: microsomes; details: Microsome

B1: Vitamin K-dependent gamma-carboxylase (Rattus norvegicus), O88496 (protein)
chain: MAVHRGSARAAPASDKVQKNKPAQTSGLEQGSRMARIFGFEWADLSSWQSVVTLLNRPTDPANLAVFRFLFAFLMLLDIPQERGLSSLDRKYLDGLDVCRFPLLDALRPLPLDWMYLVYTIMFLGALGMMLGLWYRLSCMLFLLPYWYVFLLDKTSWNNHSYLYGLLAFQLTFMDANHYWSVDGLLSAQKKNAHVPLWNYTVLRGQIFIVYFIAGVKKLDADWVEGYSMEHLSRHWLFSPFKLVLSEELTSLLVVHWCGLLLDLSAGFLLFFDASRPIGLVFVSYFHCMNSQLFSIGMFPYVMLASSPLFCSAEWPRKLVARCPKRLQELLPAKAAPRPSASCVYKRARAKAGQKPGLRHHLGTVFTLLYLLEQLFLPYSHFLTQGYNNWTNGLYGYSWDMMVHSRSHQHVKITYRDGLTGELGYLNPGVFTQSRRWKDHADMLKQYATCLSLLLPKYNVTEPQIYFDIWVSINDRFQQRLFDPRVDIVQAVWSPFRRTPWVQPLLMDLSPWRTKLQDIKSSLDNHTEVVFIADFPGLHLENFVSEDLGNTSIQLLQGEVTVELVAEQKNQTLREGEKMQLPAGEYHKVYTVSSSPSCYMYIYVNTTEVALEQDLAYLQELKEKVENGSETGPLPPELQPLLEGEVKGGPEPTPLVQTFLRRQRKLQEIERRRNSPLHERFLRFVLRKLYVFRRSFLMTRISLRNLLFGRPSLEQLAQEVTYANLRPFEPVDESSASNTDSSDPHPSEPDSEHVHSEL
Km [1]: 85 µM
Km [2]: 44 µM and < 50 µM
